Assay results taken from patent US9976134B2, “Thermolysin variants” (Danisco US Inc., priority 2007, dated 2018).
Where a chain is given by its changes, count along the chain named. Names may count otherwise.

T1: thermolysin (Bacillus thermoproteolyticus, UniProt P00800)
T1 construct: purchased Sigma
T1 sequence (P00800 233-548): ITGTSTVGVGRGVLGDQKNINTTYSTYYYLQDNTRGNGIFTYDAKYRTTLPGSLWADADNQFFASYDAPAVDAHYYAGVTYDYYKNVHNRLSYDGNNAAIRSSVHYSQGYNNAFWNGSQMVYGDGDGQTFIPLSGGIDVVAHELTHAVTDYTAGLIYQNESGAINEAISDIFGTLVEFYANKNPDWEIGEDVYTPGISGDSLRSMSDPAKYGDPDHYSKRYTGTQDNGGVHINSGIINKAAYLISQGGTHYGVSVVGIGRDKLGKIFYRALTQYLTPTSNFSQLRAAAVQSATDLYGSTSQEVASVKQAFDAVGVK

B1: Y151N: single-substitution thermolysin variant (SEQ ID NO:3 numbering) (protein, listed as Geobacillus caldoproteolyticus)
chain: T1 sequence (P00800 233-548) with Y151N
B2: Y151T: single-substitution thermolysin variant (SEQ ID NO:3 numbering) (protein, listed as Geobacillus caldoproteolyticus)
chain: T1 sequence (P00800 233-548) with Y151T
B3: T049N: single-substitution thermolysin variant (SEQ ID NO:3 numbering) (protein, listed as Geobacillus caldoproteolyticus)
chain: T1 sequence (P00800 233-548) with T49N

What was measured:
thermolysin = target: T1, thermolysin; assay: Stabilisation of thermolysin in Unilever ALL Small and Mighty detergent by metalloproteinase inhibitors (SDS-PAGE); conditions: thermolysin 800 μg/ml in Unilever ALL Small and Mighty, FIG. 8
Experimental: Zinc Chloride, Phosphoramidon, Galardin are known metalloproteinase inhibitors. They were purchased from Sigma and dissolved in water or DMSO. Different concentrations of the inhibitors were premixed with thermolysin (also referred to as Proteinase-T or PrT) for 10 min at room temperature. Then the inhibitors were added into Unilever detergent ALL Small and Mighty so that the final concentration of thermolysin was 800 μg/ml in a total volume of 1 ml. At different time points, samples were taken and precipitated with TCA. Briefly, 10 μl sample of detergent with enzyme was added into 500 μl of 0.2 N HCl on ice, and then 500 μl of 20% TCA was added. The tubes were mixed and incubated on ice for 20 min. The pellet was collected and washed with 90% ice-cold acetone. The pellet was dissolved in sample loading buffer (Invitrogen) for SDS-PAGE analysis.

[1] = Stability assay in 25% TIDE 2X detergent with DTPA (residual Abz-AGLA-Nba protease activity); format: physicochemical; conditions: 60 min at 32°C; variant residual AGLA activity divided by wild-type residual activity
Method in brief: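 Thermolysin variant culture supernatants stressed in TIDE 2× detergent, with or without DTPA: 60 min at 32° C or 180 min at 50° C. Residual versus unstressed activity on Abz-AGLA-Nba read kinetically at 25° C (Ex 350/Em 420). Performance index is variant residual activity divided by wild-type thermolysin residual activity.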

[2] = Stability assay in 25% TIDE 2X detergent without DTPA (residual Abz-AGLA-Nba protease activity); format: physicochemical; conditions: 180 min at 50°C; variant residual AGLA activity divided by wild-type residual activity
Experimental: The stability of thermolysin and variants thereof was measured after incubation under defined conditions in the presence of 25% TIDE® 2× detergent. The initial and residual activity was determined.
MTPs were obtained from Costar (type 9017) and from Greiner (black plate, type 655076). Test Method Unstressed Conditions:
First, 20 μl thermolysin containing culture supernatant was diluted with 180 μl MES assay buffer. Then, 20 μl diluted supernatant was diluted further with 180 μl MES assay buffer. Subsequently 10 μl of this dilution was transferred into 190 μl AGLA-substrate solution in a pre-warmed plate (Greiner 655076) at 25° C. Any air bubbles present were blown away and the plate was measured according to the AGLA protease assay protocol described below.
First, 20 μl of culture supernatant was diluted with 180 μl 27.5% TIDE®+detergent solution and placed in the iEMS shaker. The plate covered with a plate seal was incubated for a total of 60 minutes at 32° C. at 900 rpm. In addition, 20 μl of culture supernatant was diluted with 180 μl 27.5% TIDE®−solution and placed in the iEMS shaker. This plate covered with a plate seal was incubated for a total of 180 minutes at 50° C. at 900 rpm.
Subsequently after the respective incubations, 20 μl of either of these solutions were diluted with 180 μl MES assay buffer and 10 μl of this dilution were diluted with 190 μl AGLA-substrate solution in a pre-warmed plate (Greiner 655076) at 25° C.
Fluorescence measurements were taken at excitation of 350 nm and emission of 420 nm. The spectrofluorometer software calculated the reaction rates (=slope) of the increase in fluorescence for each well to a linearly regressed line of (milli-) RFU/min. The ratio of the residual and initial AGLA activity was used to express the 25% TIDE® 2× stability as follows: Percentage of residual activity=[slope of stressed]*100/[slope of unstressed]
For each sample (thermolysin and variants thereof) the performance index was calculated by dividing the residual activity of the variant by the residual activity of thermolysin. The performance index compared the stability of the variant and the standard thermolysin enzyme (e.g., wild type or parental enzyme), determined under the same conditions.
In these experiments, the liberation of Abz-AG by protease cleavage of Abz-AGLA-Nba was monitored by fluorescence spectrometry (Ex. 350/Em. 420). The rate of appearance of Abz-AG was a measure of proteolytic activity.
The Abz-AGLA-Nba assay solution was prepared by adding 1 ml of the Abz-AGLA-Nba stock to 19 ml MES substrate buffer and mixed well for at least 2 minutes. Subsequently the thermolysin or variants thereof containing culture supernatants were diluted with MES assay buffer to a concentration of 1-6 μg protein per ml.
The assay was performed by adding 10 μl of diluted protease solution to each well, followed by the addition of 190 μl Abz-AGLA-Nba assay solution that was pre-equilibrated for at least 15 minutes at 25° C. The solutions were vigorously mixed, and the liberation of Abz-AG by protease cleavage of Abz-AGLA-Nba was monitored by fluorescence spectrometry at 25° C. in kinetic mode with excitation set at 350 nm and emission set at 420 nm. The rate of appearance of Abz-AG was a measure of proteolytic activity in the samples. The protease activity was expressed as RFU (relative fluorescence units·min^−1).
As described in Example 1, the stability of thermolysin variants was measured by determining the AGLA activity before and after incubation in the presence of TIDE® 2× heavy duty liquid (HDL) detergent at an elevated temperature. The tables contain the relative stability values compared to wild-type thermolysin, which is the quotient of the variant residual activity divided by the wild-type residual activity. A value greater than one indicates higher stability in the presence of detergent. […]

[3] = TIDE 2X 0.78 g/l, 6 gpg, pH 8.2, 30 min at 20°C, A405; variant vs wild-type thermolysin at same protein concentration
Experimental: Thermolysin containing protease samples were obtained from filtered broth of cultures grown in microtiter plates for 3 days at 37° C. with shaking at 280 rpm under humidified aeration.
• Thermolysin containing culture supernatants (˜100-200 μg protein per ml) • TIDE® 2× (nil enzymes) detergent (P&G) • Dilution Buffer (10 mM NaCl, 0.1 mM CaCl2, 0.005% TWEEN®-80) The equipment used was a Biomek FX Robot (Beckman Coulter), a SpectraMAX MTP Reader (type 340; Molecular Devices), and an iEMS incubator/shaker (Thermo/Labsystems). MTPs were obtained from Costar (type 9017). TIDE® 2× Liquid Detergent Preparation (US Conditions):
Milli-Q water was adjusted to 6 gpg water hardness using a (Ca/Mg 3:1) hardness stock solution (282.3 g/L CaCl2.2H20, 130.1 g/L MgCl2.6H2O), 0.78 g/1 detergent TIDE® 2× was added, and the detergent solution was stirred vigorously for at least 15 minutes. Then, 5 mM HEPES was added and the pH adjusted to 8.2.
Microswatches of ¼ inch circular diameter were obtained from CFT (Vlaardingen, The Netherlands).
Two microswatches were placed vertically into each well of a 96-well microtiter plate to expose the whole surface area (i.e., not flat on the bottom of the well).
The incubator was set to 20° C. The filtered culture broth samples were tested at an appropriate concentration by dilution with a mixture of 10 mM NaCl, 0.1 mM CaCl2, 0.005% TWEEN®-80 solution. The detergent solution was prepared as described above. Then, 190 μl of detergent solution were added to each well of the MTP, containing microswatches. To this mixture, 10 μl of diluted enzyme solution were added to each well (to provide a total volume of 200 μl/well). The MTP was covered with a plate seal and placed in an incubator for 30 minutes at 20° C., with agitation at 1400 rpm (iEMS incubator). Following incubation under the appropriate conditions, 100 μl of solution from each well was removed and placed into a new MTP. Subsequently this MTP, containing 100 μl of solution/well, was read at 405 nm in a MTP-Reader. Blank controls, containing 2 microswatches/well and detergent, without the addition of thermolysin containing samples, were also included in the test.
The observed absorbance value was corrected for the blank value (obtained after incubation of microswatches in the absence of added enzyme). The resulting absorbance was a measure for the hydrolytic activity. For each sample (thermolysin or a variant) the performance index (PI) was calculated. The performance index is a comparison of the performance of the variant (actual value) and the standard thermolysin enzyme (theoretical value) at the same protein concentration. In addition, the theoretical values were calculated, using the parameters of the Langmuir equation of the standard enzyme.
C. Stability Assay in the Presence of Detergent
In this example, experiments were conducted to determine the stain removal performance of various singly substituted thermolysin (also referred to herein as Proteinase-T or PrT) variants. As described in Example 1, the stain cleaning performance of thermolysin variants was done utilizing a blood/milk/ink (BMI) microswatch assay. Briefly the cleaning performance of chosen single-substitution thermolysin variants was assessed in a TIDE® 2× microswatch assay.

Row | Molecule | stabilisation of thermolysin in detergent (thermolysin; 1 mM inhibitor) | stabilisation of thermolysin in detergent (thermolysin; 500 μM inhibitor) | PI (relative stability), 25% TIDE 2X with DTPA [1] | PI (relative stability), 25% TIDE 2X without DTPA [2] | PI (performance index), stain removal [3]
1 | CNC(=O)[C@H](Cc1c[nH]c2ccccc12)NC(=O)[C@@H](CC(=O)NO)CC(C)C [Galardin] | significantly stabilize thermolysin in detergent | – | – | – | –
2 | CC(C)C[C@H](NP(=O)(O)O[C@@H]1O[C@@H](C)[C@H](O)[C@@H](O)[C@H]1O)C(=O)N[C@@H](Cc1c[nH]c2ccccc12)C(=O)O [Phosphoramidon] | – | significantly stabilize thermolysin in detergent | – | – | –
3 | B1 | – | – | 1.25 | 1.05 | 1.19
4 | B2 | – | – | 1.18 | 1.10 | 1.13
5 | B3 | – | – | 1.03 | 1.07 | 1.10
